T1: mouse CNTN4-rabbit Fc (mouse; rabbit, UniProt Q69Z26 19-1000, limits assumed)
T1 construct: not shown: rabbit Fc
T1 sequence (looked up): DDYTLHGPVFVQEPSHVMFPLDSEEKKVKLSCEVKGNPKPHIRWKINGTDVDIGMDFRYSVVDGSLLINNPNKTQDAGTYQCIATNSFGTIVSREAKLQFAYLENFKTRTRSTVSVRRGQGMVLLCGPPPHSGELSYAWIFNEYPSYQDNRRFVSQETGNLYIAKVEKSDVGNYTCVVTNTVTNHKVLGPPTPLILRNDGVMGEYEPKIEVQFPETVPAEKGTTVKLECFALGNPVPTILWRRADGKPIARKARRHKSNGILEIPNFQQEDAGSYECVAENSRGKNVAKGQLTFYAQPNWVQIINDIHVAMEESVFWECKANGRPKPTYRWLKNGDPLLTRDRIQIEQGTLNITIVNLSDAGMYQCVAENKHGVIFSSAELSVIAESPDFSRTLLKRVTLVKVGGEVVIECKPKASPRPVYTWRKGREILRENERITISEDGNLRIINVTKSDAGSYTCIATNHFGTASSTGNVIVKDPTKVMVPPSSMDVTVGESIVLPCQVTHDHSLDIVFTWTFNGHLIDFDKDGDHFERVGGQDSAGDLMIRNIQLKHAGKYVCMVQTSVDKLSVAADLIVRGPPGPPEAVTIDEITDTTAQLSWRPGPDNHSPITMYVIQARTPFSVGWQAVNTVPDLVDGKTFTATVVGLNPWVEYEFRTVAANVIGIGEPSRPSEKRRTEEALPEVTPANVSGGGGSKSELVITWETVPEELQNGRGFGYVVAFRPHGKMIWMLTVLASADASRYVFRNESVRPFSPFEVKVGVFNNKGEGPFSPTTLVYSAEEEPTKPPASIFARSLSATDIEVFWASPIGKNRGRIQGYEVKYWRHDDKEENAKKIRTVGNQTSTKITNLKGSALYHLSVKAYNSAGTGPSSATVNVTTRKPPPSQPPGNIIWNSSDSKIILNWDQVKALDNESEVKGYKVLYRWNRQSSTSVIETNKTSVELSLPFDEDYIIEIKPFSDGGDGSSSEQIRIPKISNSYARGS

T2: human CNTN4-rabbit Fc (human; rabbit, UniProt Q8IWV2 19-1000, limits assumed)
T2 construct: not shown: rabbit Fc
T2 sequence (looked up): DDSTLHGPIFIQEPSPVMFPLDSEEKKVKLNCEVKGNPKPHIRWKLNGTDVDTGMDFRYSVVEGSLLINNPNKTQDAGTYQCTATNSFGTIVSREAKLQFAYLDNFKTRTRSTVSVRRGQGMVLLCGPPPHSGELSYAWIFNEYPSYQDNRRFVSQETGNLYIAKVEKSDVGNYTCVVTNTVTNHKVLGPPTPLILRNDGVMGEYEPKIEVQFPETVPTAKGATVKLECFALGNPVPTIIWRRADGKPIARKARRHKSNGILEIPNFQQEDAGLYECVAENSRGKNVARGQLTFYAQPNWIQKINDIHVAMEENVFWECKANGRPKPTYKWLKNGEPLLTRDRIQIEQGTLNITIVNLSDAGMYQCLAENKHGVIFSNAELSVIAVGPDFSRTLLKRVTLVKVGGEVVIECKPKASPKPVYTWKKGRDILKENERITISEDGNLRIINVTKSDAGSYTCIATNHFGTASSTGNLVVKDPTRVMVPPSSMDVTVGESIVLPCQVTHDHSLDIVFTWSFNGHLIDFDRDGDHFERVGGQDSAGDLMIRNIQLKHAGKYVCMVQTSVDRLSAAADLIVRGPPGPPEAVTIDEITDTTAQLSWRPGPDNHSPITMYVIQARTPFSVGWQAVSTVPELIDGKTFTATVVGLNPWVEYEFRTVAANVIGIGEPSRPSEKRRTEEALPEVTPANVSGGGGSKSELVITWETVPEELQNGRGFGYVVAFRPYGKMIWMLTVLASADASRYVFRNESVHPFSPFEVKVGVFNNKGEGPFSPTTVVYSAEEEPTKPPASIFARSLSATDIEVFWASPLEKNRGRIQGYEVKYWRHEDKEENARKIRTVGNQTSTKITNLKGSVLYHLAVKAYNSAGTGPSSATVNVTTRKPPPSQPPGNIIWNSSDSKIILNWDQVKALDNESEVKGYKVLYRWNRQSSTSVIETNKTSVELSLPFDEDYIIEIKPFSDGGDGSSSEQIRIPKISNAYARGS

T3: human CNTN4 antigen expressed on the cell membrane of 293FT cells (human, UniProt Q8IWV2 19-1000)
T3 construct: whole, on cells; also called Human CNTN4 transfected cell
T3 sequence (looked up): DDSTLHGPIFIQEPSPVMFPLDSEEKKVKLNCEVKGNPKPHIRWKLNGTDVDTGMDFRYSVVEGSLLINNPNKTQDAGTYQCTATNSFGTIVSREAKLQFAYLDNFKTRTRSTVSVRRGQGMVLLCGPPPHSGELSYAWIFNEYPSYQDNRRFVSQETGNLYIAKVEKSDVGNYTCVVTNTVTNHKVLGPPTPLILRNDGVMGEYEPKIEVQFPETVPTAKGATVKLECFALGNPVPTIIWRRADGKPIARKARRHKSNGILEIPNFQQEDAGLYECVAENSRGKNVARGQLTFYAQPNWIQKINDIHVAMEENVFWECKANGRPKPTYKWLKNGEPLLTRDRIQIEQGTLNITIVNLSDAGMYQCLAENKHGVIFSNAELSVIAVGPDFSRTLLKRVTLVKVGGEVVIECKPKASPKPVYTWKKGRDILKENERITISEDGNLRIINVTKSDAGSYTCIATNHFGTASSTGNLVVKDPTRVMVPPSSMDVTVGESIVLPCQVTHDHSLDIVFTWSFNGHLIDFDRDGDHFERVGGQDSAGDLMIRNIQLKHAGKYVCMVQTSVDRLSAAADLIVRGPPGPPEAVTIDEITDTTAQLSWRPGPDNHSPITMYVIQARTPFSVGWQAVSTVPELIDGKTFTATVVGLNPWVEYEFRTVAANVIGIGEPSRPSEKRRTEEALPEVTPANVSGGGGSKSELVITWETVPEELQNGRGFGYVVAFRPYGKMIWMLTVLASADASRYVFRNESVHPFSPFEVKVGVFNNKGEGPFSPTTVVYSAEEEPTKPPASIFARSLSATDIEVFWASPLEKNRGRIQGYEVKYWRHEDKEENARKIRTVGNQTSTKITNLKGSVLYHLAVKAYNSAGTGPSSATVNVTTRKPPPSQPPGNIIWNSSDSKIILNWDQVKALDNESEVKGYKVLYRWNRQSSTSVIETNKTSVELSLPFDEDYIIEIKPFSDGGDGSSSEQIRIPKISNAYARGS


Legend:
[1] = target: T1, mouse CNTN4-rabbit Fc; assay: ELISA, plate coated with antigen-rabbit Fc, anti-human IgG Fc-HRP
Protocol: (§1) An ELISA tests were performed on a total of 25 scFv-hCks and a total of 27 IgGs for which the expression was confirmed in Example 1.2. An ELISA plate was coated with 200 ng of antigens (human CNTN4-rabbit Fc or mouse CNTN4-rabbit Fc). 200 ng of a negative control (human antigen-rabbit Fc) for a tagging protein was used. For antibody binding, anti-CNTN4 scFv-hCk was serially diluted from a maximum of 1 μM to 0.001 nM by 1/10×each, and anti-CNTN4 IgG was serially diluted from a maximum of 10 nM to 0.00001 nM by 1/10×each, thereby binding to the antigen. Anti-human kappa-HRP or anti-human IgG Fc-HRP was used as the secondary antibody for antibody detection. Color was developed using ABTS, which is a color developing reagent, and the absorbance at 405 nm was measured.

[2] = target: T2, human CNTN4-rabbit Fc; assay: as above
Protocol: as §1

[3] = target: T3, human CNTN4 antigen expressed on the …; assay: FACS, 293FT cells transfected with human CNTN4, 40 ug/mL, anti-hFc-PE

Binder | EC50 [1] [pM] | EC50 [2] [pM] | Shift % [3] [%]
anti-CNTN4 IgG A35SF8 (antibody, V domains shown, human IgG4 (S228P)) VH: AVTLDESGGGLHTPGGALSLVCKASGFTFSSYGMAWVRQAPGKGLEWVAGITSSGSSAGYGPAVKGRATISRDNGQSTVRLQLNNLRAEDTATYYCAKDGYIYSGADSDSIDAWGHGTEVIVSS VL: ALTQPSSVSANLGGTVKITCSGGGGSYGWFQQKSPGSAPVTLIYNNNNRPSDIPSRFSGSKSGSTATLTITGVQAEDEAVYFCGGYDDSTYVGMFGAGTTLTVL | 20 | 10 | 80.4
anti-CNTN4 IgG A35SF14 (antibody, V domains shown, human IgG4 (S228P)) VH: AVTLDESGGGLHTPGGALSLVCKASGFTFSSYGMAWVRQAPGKGLEWVAGITSSGSSAGYGPAVKGRATISRDNGQSTVRLQLNNLRAEDTATYYCAKDGYIYSGADSDSIDAWGHGTEVIVSS VL: ALTQPSSVSANPGETIKITCSGGGGSYGWYQQKSPGSAPVTVIYNGNNRPSDIPSRFSGSKSGSTATLTITGVQAEDEAVYFCGGYDSGTYSGIFGAGTTLTVL | 10 | 10 | 81.6
anti-CNTN4 IgG A13SF16 (antibody, V domains shown, human IgG4 (S228P)) VH: AVTLDESGGGLQTPGGGLSLVCKASGFTFSSYGMAWVRQAPGKGLEWVAGITSSGSSAGYGPAVKGRATISRDNGQSTVRLQLNNLRAEDTATYYCAKDGYIYSGADSDSIDAWGHGTEVIVSS VL: ALTQPSSVSANLGGTVKITCSGSGGSYGWFQQKSPGSAPVTLIYNNDNRPSDIPSRFSGSKSGSTATLTITGVQAEDEAVYFCGGYDSSTYVDTFGAGTTLTVL | 10 | 10 | 84.8
anti-CNTN4 IgG A13SF21 (antibody, V domains shown, human IgG4 (S228P)) VH: AVTLDESGGGLHTPGGALSLVCKASGFTFSSYGMAWVRQAPGKGLEWVAGITSSGSSAGYGPAVKGRATISRDNGQSTVRLQLNNLRAEDTATYYCAKDGYIYSGADSDSIDAWGHGTEVIVSS VL: ALTQPSSVSANLGGTVEITCSGSSGSYGWYQQKAPGSAPVTVIYNNNNRPSGIPSRFSGALSGSTATLTITGVQAEDEAVYFCGGYDSSTYVGIFGAGTTLTVL | 10 | 10 | 80.4
anti-CNTN4 IgG A13SF1 (antibody, V domains shown, human IgG4 (S228P)) VH: AVTLDESGGGLQTPGGGLSLVCKASGFTFSSYGMAWVRQAPGKGLEWVAGITSSGSSAGYGPAVKGRATISRDNGQSTVRLQLNNLRAEDTATYYCAKDGYIYSGADSDSIDAWGHGTEVIVSS VL: ALTQPSSVSANLGGTVKITCSGGGGSYGWFQQKSPGSAPVTLIYNNNNRPSDIPSRFSGSKSGSTATLTITGVQAEDEAVYFCGGYDSSTYVGTFGAGTTLTVL | 20 | 10 | 83.8
anti-CNTN4 IgG A13WB25 (antibody, V domains shown, human IgG4 (S228P)) VH: AVTLDESGGGLHTPGGALSLVCKASGFTFSSYGMAWVRQAPGKGLEWVAGITSSGSSAGYGPAVKGRATISRDNGQSTVRLQLNNLRAEDTATYYCAKDGYIYSGADSDSIDAWGHGTEVIVSS VL: ALTQPSSVSANLGGTVEITCSGGGGSYGWYQQKSPGSAPVTVIYYNDKRPSDIPSRFSGSKSGSTGTLTITGVQAEDEAVYFCGGYDGSTYAGIFGAGTTLTVL | 10 | 10 | 82.4

Further binders by falling EC50 [1], results first:

EC50 [1] [pM] | EC50 [2] [pM] | Shift % [3] [%] | Binder
10 | 10 | 86.6 | anti-CNTN4 IgG A13WB2 (antibody, V domains shown, human IgG4 (S228P)) VH: AVTLDESGGGLHTPGGALSLVCKASGFTFSSYGMAWVRQAPGKGLEWVAGITSSGSSAGYGPAVKGRATISRDNGQSTVRLQLNNLRAEDTATYYCAKDGYIYSGADSDSIDAWGHGTEVIVSS VL: ALTQPSSVSANLGGTVEITCSGGYSGYGWYQQKSPGSAPVTLIYYNDKRPSDIPSRFSGSKSGSTGTLTITGVQAEDEAVYFCGSRDSSTYVDIFGAGTTLTVL
10 | 10 | 84.7 | anti-CNTN4 IgG A13WB4 (antibody, V domains shown, human IgG4 (S228P)) VH: AVTLDESGGGLHTPGGALSLVCKASGFTFSSYGMAWVRQAPGKGLEWVAGITSSGSSAGYGPAVKGRATISRDNGQSTVRLQLNNLRAEDTATYYCAKDGYIYSGADSDSIDAWGHGTEVIVSS VL: ALTQPSSVSANPGETVEITCSGGSSDYGYGWYQQKSPGSAPVTVIYYNNNRPSDIPSRFSGSLSGSTNTLTITGVQADDEAVYFCGSRDSSSGYVDIFGAGTTLTVL
10 | 10 | 86.4 | anti-CNTN4 IgG A13WB7 (antibody, V domains shown, human IgG4 (S228P)) VH: AVTLDESGGGLHTPGGALSLVCKASGFTFSSYGMAWVRQAPGKGLEWVAGITSSGSSAGYGPAVKGRATISRDNGQSTVRLQLNNLRAEDTATYYCAKDGYIYSGADSDSIDAWGHGTEVIVSS VL: ALTQPSSVSANPGETVKITCSGGGSSSYYNYGWYQQKSPGSAPVTVIYYNDKRPSDIPSRFSGSKSGSTGTLTITGVQAEDEAVYYCGSWDSSTYSDIFGAGTTLTVL
10 | 10 | 86.4 | anti-CNTN4 IgG A13WB73 (antibody, V domains shown, human IgG4 (S228P)) VH: AVTLDESGGGLHTPGGVLSLVCKASGFTFSSYGMAWVRQAPGKGLEWVAGITSSGSSAGYGPAVKGRATISRDNGQSTVRLQLNNLRAEDTATYYCAKDGYIYSGADSDSIDAWGHGTEVIVSS VL: ALTQPSSVSANLGGTVEITCSGGYSGYGWYQQMSPGSAPVTLTYYNDKRPSNIPSRFSGSKSGSTATLAITGVQAEDEAVYYCGSWDTSTNTPIFGAGTTLTVL
10 | 10 | 85.1 | anti-CNTN4 IgG A13WB24 (antibody, V domains shown, human IgG4 (S228P)) VH: AVTLDESGGGLHTPGGALSLVCKASGFTFSSYGMAWVRQAPGKGLEWVAGITSSGSSAGYGPAVKGRATISRDNGQSTVRLQLNNLRAEDTATYYCAKDGYIYSGADSDSIDAWGHGTEVIVSS VL: ALTQPSSVSANPGGTVEITCSGGGNNNYGWYQQKSPGSAPVTLIYYNDNRPSDIPSRFSGSKSGSTATLTITGVQAEDEAVYYCGGYDISYVDIFGAGTTLTVL
10 | 10 | 77.9 | anti-CNTN4 IgG A35SF38 (antibody, V domains shown, human IgG4 (S228P)) VH: AVTLDESGGGLHTPGGALSLVCKASGFTFSSYGMAWVRQAPGKGLEWVAGITSSGSSAGYGPAVKGRATISRDNGQSTVRLQLNNLRAEDTATYYCAKDGYIYSGADSDSIDAWGHGTEVIVSS VL: ALTQPSSVSANLGGTVKLTCSGSSGSYGWYQQKSPGSAPVTLIYNNNNRPSDIPSRFSGSTSGSTGTLTITGVRAEDEAVYFCGGYDSSTYVAIFGAGTTLTVL

Source: patent US20240182563A1 (GENOME, published 2024)
